Test results taken from the domain aggregation screens of Martell et al. (2025).

experiment: soluble fraction after stress (log2 fold change); higher = more stays soluble; pooled small domains, quantitative proteomics; conditions: stress: pH 4
Summary of the method: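 Custom libraries of small protein domains were pooled and measured with high-throughput quantitative proteomics after pH 4 stress. The read-out is the fold change in the amount of each domain that stays soluble after the acid stress, taken as a measure of aggregation propensity. Fold changes are on a log2 scale, and higher values mean more of the domain stayed soluble.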

| Sequence | soluble fraction (log2) |
| --- | --- |
| HMAVGDMISKLRTAANMSQEQFAELFGVTRQSVQKWENSFSVPELEKLIKISKYFDVSLDALVLRSDARVT | -1.32 |
| HMVNSADLAAKPFIDLLVSTRQQLREAKQYDLADTIRDELTNHGITIEDKPQGSEWQYEFNPNS | -0.499 |
| HMADQIIEGILGKEGGYVNNPNDKGGPTRWGITQTTARAYGYSGDMKALPRDTAKAIYLSQYWT | -0.218 |
| HMYQKERDKEISEIETFLKKITNANGTRAYSDESIADMSYVELLNLYEGITSKLTEEEIENI | -0.644 |
| HMDRRDEYHQHLLRLLLSGEIRDKDELQRRKVKLSGEYGLAGVPKNSETLALVPPDRLPEVLDILR | -0.289 |
| HMAEPYDEDKVMEHLYIKGKDVVIAHLKHLKEHNEHVWLKKGVEWMQKNQDRLGFDMMEVIYVVHNH | -1.18 |
| HMRSFADEGTVEEWIKQAIRENEAAVADYRKGKETAVKFLMGQVMRLSKGEANPADLEDKIKAKLD | 0.025 |
| HMKHMTMYEAAKIAKEVGAPKLWLTHYSPSMTRPEEFMDDVRKIFPAAYAAKDGWTMELNFDEG | -0.385 |
| HMQYSIQVNKLLKAMREDVWYTANEILDLLKLKSKETLRKNYLDPAINNKLIILELPDKPTSRNQRYKI | -0.289 |
| HMFTLDIGTIIRNRRLELNLTLEEIGNAVGVSKSTVQKWENGFISNMKRDKISALAKVLNINPVTLITGEY | -0.711 |
| HMGLTRRAQLEVADANLKRLYPGMHQSWVTAIAEYLHSSYWRYINSLEPEYAASIQRVYEQHIDAM | -0.0592 |
| HMKNLDILTPKEIEVLNLVAKGYSNSKISKELDIAEVTVKKHIGSMFQKLDVKDRLSLALIL | -0.52 |
| HMLGDAVLRQVLETIPEDPAVDYLELRRNTGMTEADLDRVLADLENLGVINKKRTVEQVLYWRT | -1.44 |
| HMGNGALLTLTVKERQVIQLVAEGKSNKQIARDLNVTPETIKSHMKNIFAKLKVDNRAQAAVMVQQ | 0.0874 |
| HMEKYIVNQEEQGKRLDIYVVNKSSELTRTAVQRLIEQEHILVNGRKQKASYKVLEGDIITIERV | -0.649 |
| HMPQIDLYPFEVRIEQDNNAAEYAVRFLDVPNIIGSGASIDEAIVEARGNLKEYLDYLIDTNRDIPLPS | -1.43 |
| HMSTTYAPYLLGETEQEAIRMARNAGLDPQVVRQSDKSEAGTVILQSHDFGFAMKRGAVILITVSSGPLQ | -0.0322 |
| HMASLASVAYETLRQALDNFQYVPGDRFSESEVGQQLGMSRTPVREALVRLQREGYISVLPKMGWVVNQ | -0.953 |
| HMDMNVQNYRGLSLDRAKKLISDLGLKYEVVGTGDSVVKQVPSSGSRMSKENGRIILYTENVEDA | 0.278 |
| HMELKYIDYDEALVVYAKTVTASGGGLSGVKDEGGIRKVLDFVQNDLYYPTFVDKLTYLVFGL | -0.155 |
| HMPTAGYMTVTPDRVKEGQQFLATLRPPYVLKADGLAAGKGVLILPELEEAQRELEEMLGGFLGELSVNR | -0.303 |
| HMGGFNATTLQNIEELRRSLSDADQFGRHEVIETIGGSDSRAGKLLKKMLEAGIIEQVKGHGKGRYRFKRT | 0.0979 |
| HMIDVGSKIRSLRKSKNISISTLAKNSDLSTGLISQIERNMVVPSIVAMWKISKALDINIGYFFE | -0.109 |
| HMSKLSVSSLSSPEVQNQLKAAGIDVNSRQYQVVMKDMMGALDGRAGYTTVSAIKNRMRQYNADGDY | 0.19 |
| HMKLKHANGNHPLTQQEKQNMIEEAAKHYGDYMTALGFDWKQDPNSSDTPMRVAKAFVNDLAEGVY | -0.348 |
| HMDVSLVEQTQRDILEYISKNNSNAQLPKEQEFVGLLGVSRVVVREALSRLRALGIIETKRKKGTVVVVPE | -0.31 |

| Sequence | soluble fraction (log2) |
| --- | --- |
| HMQGEVVTNRSVIDMSRAGLSADIIRAKILRSDTNFDVTAKALIELKESGVPDDIIALMLERADS | -0.218 |
| HMRLSVRQRMSDVLGALKTQAFVEFTQLFRPQEGRMGVTVTFSAILELLREGLIEIVQSEPFAPIHVRAGA | 0.22 |
| HMEKKTILIPPVITVRALAEISQIPVNRLLQELIKNGVFTSINEKIDFDTAVIIGADLNLDIQLL | -0.984 |
| HMHEYSDIEHRILDAAREVFIRKGYDSATMGDIALLAGMSRTSVNYYFRNKERLFEAIFEEII | -1.25 |
| HMEYYWHQLKGLEVVNTRGESLGRVRRLLETGANDVLVLEGEQERLIPYVPDTIKQVDLAKGLIEVAWDRD | -1.23 |
| HMKSFDERQAALNELAKVIEGTGRKAEQDAEFRREQNQLMIDKIDEQLKGDLTDSQREELKKERAALARK | 0.0649 |
| HMDAHYMEMKGKTGTAFTMLRPAGKIDIEGQIFDAVAEAGFIEKGEAIRVVKYENAQLIVRK | -0.32 |
| HMKKYFPPKSRFNPNKYLLKDWMALGLSEKQSQSILNFIQRGIYSNSALEKIYVMPEEVFTLIKDSTYYEE | -1.26 |
| HMEFFIIDHNGQQAGPFSFDQLVQKGISPETLVWKQGMADWNPAWKVEELKAVLEAVEANQSNQKAQ | -1.3 |
| HMTFPYTSLKDAPKNMKEIDGVPLTLDQVNQIAKVADSIGVSKEKNGYAIAKSQFKKSHHIENNRWVKNK | 0.126 |
| HMVPHTTSMVAEVQERLFNLNYDPGPINGRMDQATITAITRFQRNFSLPQTGQIDEGFLNTLRDARL | 0.063 |
| HMTDNSTTTIRNLKIEWLLEEIRNAVRTGVSVDAAVERISNNPFVKPPEDLLNEARIIFLQNAGQI | -0.848 |
| HMKQESSEDLLNEVIDKVIDSNPDEKNRLLDGELKLVSFFMGQVMKETKGKANPGVINGLIKKKFNI | -0.748 |
| HMRPEARAASLSDEERKIFDYLAANGEKTIDNISVAVKMSAADILKNITLMSAKGLVYMPSAGRYGVKGN | 0.0795 |
| HMSNWYKNNETDQIWWKDTPDSVGEWLFSFDKKQVFNMFADYPHNLTPEQKKIFDEENPEWSDRP | -0.981 |
| HMGTGELLVHVIGAVHSPGVVRLPTGARVVDAIDAAGGAREDAQTEQLNLARLVDDGEQVRVPVVGESVD | 0.00081 |
| HMGEVPPGWSVEALAAIERDLAHHVGPVARVLVQRGARLHTTTDDLRSALANAITDDLARRRFMQP | -0.635 |
| HMKYRLLGENLQTIRKARGMKQQELADQIGINMQSLSKIERGLNYPTFETLEKIMNALGITPNELLSG | -0.798 |
| HMSTQGRRIEILRHLTQTKKKADVNFVELGRTFGTSDTTIRKDLDWLIKNEYWENHGEWKPTQAGLNMI | -0.00179 |
| HMHKPLRILVYEELRMLIMTGQIKPGTRMMEIDLAESMGVSRTPVREAIRQLEKDNLVTIEPRRGAYVSD | -0.761 |
| HMEDNKLKNEIKNELVSHLEKPYSVEDLADALKYHGSAAFKLIVQELAILERERAVVVTHDGNFKINSS | -0.0181 |
| HMETGGLAQEAERELALLQEQIAHHEALYRKGTPEISDGAFDELFDRYQELADSLGVPADERIDRA | -0.836 |
| HMNENNFIVAMRERLAQFIETSGTSQSRIAKELGVSKSTVSLFLGGTYGGNNQELARNLEQLLSMGAARR | 0.212 |
| HMANTLDPMDLKQIISLHLDGFSNRKIGATLGISRNTVNTYMRLFSVSDYALKELLTLDNATLDKLFPS | -0.603 |
| HMADFYEVLGVERNASSDQIKRAYRKLARELHPDVNLDPVAQNRFKEVTEAYEVLSDPNKRSNFDRG | -0.0615 |
| HMSFFNGNQMKILRKKLQLNQEEMGEKLGIKKSYVSQLENNRKEITEEIDQILQELEQEYQDKM | -0.0582 |

| Sequence | soluble fraction (log2) |
| --- | --- |
| HMPQISQDDLMEAGLIVGKEAKQRRIKLGEILGIGYVNAKQLPKRLQLFQVAKSDFEQAVQQIDG | 0.134 |
| HMADEEEIMVPQVVGKTYDEAKSELENAGFKVEKNEKTSDKASGTVISQSINGGAKKGTSVTLTVSKGN | 0.132 |
| HMIPNPMTDRELEVLGLLASGKTYKQVARALDLSQSTVRNHLHNVYHKLNVVDRAQAVIVSRENGW | -0.29 |
| HMELSAEGWVDGTGVRMRASASTDSEVVRVTEDGESLDITGVSGTWYRVTAGGVSGYIRSDYVSLEEP | -0.186 |
| HMLRQRVFRIIQNNINSKNYFVYTKQILAELAGISMRSLNRTLSELQNDRLIIVDSGTIRLFT | -0.824 |
| HMEDHMVVFGKGGRITRLPDKATVLEYLDAANFFASRSSVVKVNGKLASLDQTLRDGDSIEIVD | -0.473 |
| HMAAEFERKNGIVYFFHSSEKPHLNYPHVHARYGEDTISISLRDFTVIGSFSSKKKQKEAVEYVKNK | -0.352 |
| HMEDTFEYPVSVNGKLRFKIELPVSMEKDEIRNIVLNDERAKKWLATGTLTNLIVVPNRIINIVIK | 0.0025 |
| HMVDLEINGRQTLQFVANKYGIPVEKLATDLNIPSDRFGEKLGRLRRQYAFTMNDVRKSILKNK | 0.215 |
| HMTVTTDITQYFLQENGLLNGPNARQLRQKIGETLNIGYTNGKQLLKRAQQFGLTRDQILTALKK | 0.278 |
| HMVTLYDGFLSELRKRIPRGAELTNTLVDMLYIEREAVYRRLRGEVPFTFIEVMTVSKELGISLDNLAQA | -0.802 |
| HMTALAVGDRVKMDKSATIYGTMRKFAAWVYATKLYVRGIDGNRVVVSTLKSGAITGAVDKKHLTK | -0.0515 |
| HMQSVSANSVQKQLADIIDGEDKTHPLSDRELTEKLVAQGVQISRRTVAKYREAMGIPGASGRKQ | 0.107 |
| HMDEEQIASRRALIMRAAREIMETQGMEALSIRKIAAMIQQTPGIIYHYFSGKEELMLAVVQEGYH | -0.219 |
| HMLDLSDFEVVRDLYLSEQIWNVGDLIIARSKKDDTYKAWEIIRKGTNYVTGIDESHKVEKIWLHDILI | -1.1 |
| HMKALYNLDYEKPLSGSYYTETTARAAVPTDIRKLGLIITYKTDATTNITEQFVGSSISAWTTSGNWKSLG | 0.105 |
| HMEPADALVAALVARGVSPSTARITVKQYPATRIQPQLEVFDYLVAQKDPKVSRNPPGFLLSAIRGEYA | 0.0562 |
| HMTTKEEAAYQAIRSAIIDGELKPGQSVTIRDLASRFDLGRTPITDAMKHLALDGWLETTTGVGTRV | -0.15 |
| HMSSLDTLTARETQILAEMAQGKNNAAIAAAVSVSERAVEKHTNSIFAKLGLSEEKDVNRRVMAVLLFLGR | -1.5 |
| HMAGAPANLAARLREQILQGAYHDGQRLPAERHLAAEHGVSRGTVREALRLLEQGALLTRKRGSGSYVTYP | 0.006 |
| HMNRREFQFSEGSSNKFWSIELRDQSFIVHYGKIGTNGQAQEKTFATADAAKKEHDKLIAEKTKKGYVEVQ | -0.691 |
| HMKFKDYYAALGIDRNADLEQIKKAYRKLARQYHPDVSKAPDAEARFKDAAEAYATLKNPEKRAAYDELGS | 0.22 |
| HMDFLKSVDLSKYSKVESLILSHLSKGDFDIDDFIRSFSLGTDEVTRAIVSLEIEGIILRKGNRIFRKKS | 0.0153 |
| HMKQTMIVVMEKDAPQSQIDDMVKRIEGLGLKAHTIVGTQRTVVAAIGEKREDTRESLAGSPGVAEVVPIL | -0.137 |
